B1: Taf6 (natural protein)
chain: MSTQQQSYTIWSPQDTVKDVAESLGLENINDDVLKALAMDVEYRILEIIEQAVKFKRHSKRDVLTTDDVSKALRVLNVEPLYGYYDGSEVNKAVSFSKVNTSGGQSVYYLDEEEVDFDRLINEPLPQVPRLPTFTTHWLAVEGVQPAIIQNPNLNDIRVSQPPFIRGAIVTALNDNSLQTPVTSTTASASVTDTGASQHLSNVKPGQNTEVKPLVKHVLSKELQIYFNKVISTLTAKSQADEAAQHMKQAALTSLRTDSGLHQLVPYFIQFIAEQITQNLSDLQLLTTILEMIYSLLSNTSIFLDPYIHSLMPSILTLLLAKKLGGSPKDDSPQEIHEFLERTNALRDFAASLLDYVLKKFPQAYKSLKPRVTRTLLKTFLDINRVFGTYYGCLKGVSVLEGESIRFFLGNLNNWARLVFNESGITLDNIEEHLNDDSNPTRTKFTKEETQILVDTVISALLVLKKDLPDLYEGKGEKVTDEDKEKLLERCGVTIGFHILKRDDAKELISAIFFGE
B2: Taf5 (natural protein)
chain: MSQKQSTNQNQNGTHQPQPVKNQRTNNAAGANSGQQPQQQSQGQSQQQGRSNGPFSASDLNRIVLEYLNKKGYHRTEAMLRAESGRTLTPQNKQSPANTKTGKFPEQSSIPPNPGKTAKPISNPTNLSSKRDAEGGIVSSGRLEGLNAPENYIRAYSMLKNWVDSSLEIYKPELSYIMYPIFIYLFLNLVAKNPVYARRFFDRFSPDFKDFHGSEINRLFSVNSIDHIKENEVASAFQSHKYRITMSKTTLNLLLYFLNENESIGGSLIISVINQHLDPNIVESVTAREKLADGIKVLSDSENGNGKQNLEMNSVPVKLGPFPKDEEFVKEIETELKIKDDQEKQLNQQTAGDNYSGANNRTLLQEYKAMNNEKFKDNTGDDDKDKIKDKIAKDEEKKESELKVDGEKKDSNLSSPARDILPLPPKTALDLKLEIQKVKESRDAIKLDNLQLALPSVCMYTFQNTNKDMSCLDFSDDCRIAAAGFQDSYIKIWSLDGSSLNNPNIALNNNDKDEDPTCKTLVGHSGTVYSTSFSPDNKYLLSGSEDKTVRLWSMDTHTALVSYKGHNHPVWDVSFSPLGHYFATASHDQTARLWSCDHIYPLRIFAGHLNDVDCVSFHPNGCYVFTGSSDKTCRMWDVSTGDSVRLFLGHTAPVISIAVCPDGRWLSTGSEDGIINVWDIGTGKRLKQMRGHGKNAIYSLSYSKEGNVLISGGADHTVRVWDLKKATTEPSAEPDEPFIGYLGDVTASINQDIKEYGRRRTVIPTSDLVASFYTKKTPVFKVKFSRSNLALAGGAFRP

Experiments:
Sgf73 [1] = biological target: T1, Sgf73 (S. cerevisiae, UniProt P53165 1-657); assay: cryo-EM structure
T1 sequence: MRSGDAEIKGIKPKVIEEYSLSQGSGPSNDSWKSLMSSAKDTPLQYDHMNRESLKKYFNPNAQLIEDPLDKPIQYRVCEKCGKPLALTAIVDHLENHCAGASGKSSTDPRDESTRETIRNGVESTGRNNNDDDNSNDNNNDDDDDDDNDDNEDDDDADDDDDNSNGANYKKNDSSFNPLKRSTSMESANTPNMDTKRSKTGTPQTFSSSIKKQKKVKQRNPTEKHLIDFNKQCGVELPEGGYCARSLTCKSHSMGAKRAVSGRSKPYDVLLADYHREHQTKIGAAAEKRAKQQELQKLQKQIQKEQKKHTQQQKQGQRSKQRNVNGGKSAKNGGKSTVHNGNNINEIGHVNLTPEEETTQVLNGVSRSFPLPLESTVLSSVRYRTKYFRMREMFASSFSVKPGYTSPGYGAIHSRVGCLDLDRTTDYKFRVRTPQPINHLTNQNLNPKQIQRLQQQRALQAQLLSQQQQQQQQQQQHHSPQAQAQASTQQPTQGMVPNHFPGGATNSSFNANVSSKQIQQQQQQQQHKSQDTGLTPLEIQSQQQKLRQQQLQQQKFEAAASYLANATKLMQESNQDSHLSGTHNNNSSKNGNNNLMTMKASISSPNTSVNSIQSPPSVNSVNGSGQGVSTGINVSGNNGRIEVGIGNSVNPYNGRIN

Taf5 [2] = biological target: B2; assay: cryo-EM structure
Taf6 = biological target: B1; assay: cryo-EM structure
Spt7 = biological target: T2, Spt7 (S. cerevisiae, UniProt P35177 1-1332); assay: cryo-EM structure
T2 sequence: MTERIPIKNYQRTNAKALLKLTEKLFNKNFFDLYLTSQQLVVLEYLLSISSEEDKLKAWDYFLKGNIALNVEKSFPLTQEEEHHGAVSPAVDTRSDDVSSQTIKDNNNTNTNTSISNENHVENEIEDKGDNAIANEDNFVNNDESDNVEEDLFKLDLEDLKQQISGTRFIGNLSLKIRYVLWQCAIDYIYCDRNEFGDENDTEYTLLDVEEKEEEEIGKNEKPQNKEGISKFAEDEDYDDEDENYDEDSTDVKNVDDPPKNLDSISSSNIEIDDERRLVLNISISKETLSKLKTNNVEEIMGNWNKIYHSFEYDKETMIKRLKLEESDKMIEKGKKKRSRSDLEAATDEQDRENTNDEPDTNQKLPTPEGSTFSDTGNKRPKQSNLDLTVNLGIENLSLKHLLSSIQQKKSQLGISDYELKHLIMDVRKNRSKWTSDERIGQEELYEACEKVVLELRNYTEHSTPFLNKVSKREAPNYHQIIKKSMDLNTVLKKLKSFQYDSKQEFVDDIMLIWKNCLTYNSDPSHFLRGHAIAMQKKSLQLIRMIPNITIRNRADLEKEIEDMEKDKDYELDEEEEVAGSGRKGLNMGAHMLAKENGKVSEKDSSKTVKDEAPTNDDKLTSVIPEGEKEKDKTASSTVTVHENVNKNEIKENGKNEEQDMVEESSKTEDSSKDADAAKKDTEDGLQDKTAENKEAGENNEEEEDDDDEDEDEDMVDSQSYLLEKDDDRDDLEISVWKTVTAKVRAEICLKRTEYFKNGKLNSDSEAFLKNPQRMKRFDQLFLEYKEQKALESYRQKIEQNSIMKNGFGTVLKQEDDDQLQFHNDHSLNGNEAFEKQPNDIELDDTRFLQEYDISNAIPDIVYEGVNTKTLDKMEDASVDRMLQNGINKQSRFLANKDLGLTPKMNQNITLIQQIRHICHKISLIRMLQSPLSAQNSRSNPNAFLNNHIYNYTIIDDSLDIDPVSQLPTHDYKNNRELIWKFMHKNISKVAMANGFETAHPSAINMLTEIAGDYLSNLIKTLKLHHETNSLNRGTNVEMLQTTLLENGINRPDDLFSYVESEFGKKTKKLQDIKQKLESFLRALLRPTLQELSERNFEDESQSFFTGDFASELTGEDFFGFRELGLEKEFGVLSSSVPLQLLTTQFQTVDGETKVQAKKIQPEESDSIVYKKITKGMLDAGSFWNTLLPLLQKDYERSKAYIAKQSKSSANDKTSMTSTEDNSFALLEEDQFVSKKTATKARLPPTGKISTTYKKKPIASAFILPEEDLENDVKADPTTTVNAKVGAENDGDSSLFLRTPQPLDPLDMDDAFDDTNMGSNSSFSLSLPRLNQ

Sgf73 [3] = biological target: T1, Sgf73; assay: affinity purification with mass spectrometry
Tra1 = Tra1 (S. cerevisiae, UniProt P38811 1-3744); assay: affinity purification with mass spectrometry
Tra1, sequence (P38811 whole entry): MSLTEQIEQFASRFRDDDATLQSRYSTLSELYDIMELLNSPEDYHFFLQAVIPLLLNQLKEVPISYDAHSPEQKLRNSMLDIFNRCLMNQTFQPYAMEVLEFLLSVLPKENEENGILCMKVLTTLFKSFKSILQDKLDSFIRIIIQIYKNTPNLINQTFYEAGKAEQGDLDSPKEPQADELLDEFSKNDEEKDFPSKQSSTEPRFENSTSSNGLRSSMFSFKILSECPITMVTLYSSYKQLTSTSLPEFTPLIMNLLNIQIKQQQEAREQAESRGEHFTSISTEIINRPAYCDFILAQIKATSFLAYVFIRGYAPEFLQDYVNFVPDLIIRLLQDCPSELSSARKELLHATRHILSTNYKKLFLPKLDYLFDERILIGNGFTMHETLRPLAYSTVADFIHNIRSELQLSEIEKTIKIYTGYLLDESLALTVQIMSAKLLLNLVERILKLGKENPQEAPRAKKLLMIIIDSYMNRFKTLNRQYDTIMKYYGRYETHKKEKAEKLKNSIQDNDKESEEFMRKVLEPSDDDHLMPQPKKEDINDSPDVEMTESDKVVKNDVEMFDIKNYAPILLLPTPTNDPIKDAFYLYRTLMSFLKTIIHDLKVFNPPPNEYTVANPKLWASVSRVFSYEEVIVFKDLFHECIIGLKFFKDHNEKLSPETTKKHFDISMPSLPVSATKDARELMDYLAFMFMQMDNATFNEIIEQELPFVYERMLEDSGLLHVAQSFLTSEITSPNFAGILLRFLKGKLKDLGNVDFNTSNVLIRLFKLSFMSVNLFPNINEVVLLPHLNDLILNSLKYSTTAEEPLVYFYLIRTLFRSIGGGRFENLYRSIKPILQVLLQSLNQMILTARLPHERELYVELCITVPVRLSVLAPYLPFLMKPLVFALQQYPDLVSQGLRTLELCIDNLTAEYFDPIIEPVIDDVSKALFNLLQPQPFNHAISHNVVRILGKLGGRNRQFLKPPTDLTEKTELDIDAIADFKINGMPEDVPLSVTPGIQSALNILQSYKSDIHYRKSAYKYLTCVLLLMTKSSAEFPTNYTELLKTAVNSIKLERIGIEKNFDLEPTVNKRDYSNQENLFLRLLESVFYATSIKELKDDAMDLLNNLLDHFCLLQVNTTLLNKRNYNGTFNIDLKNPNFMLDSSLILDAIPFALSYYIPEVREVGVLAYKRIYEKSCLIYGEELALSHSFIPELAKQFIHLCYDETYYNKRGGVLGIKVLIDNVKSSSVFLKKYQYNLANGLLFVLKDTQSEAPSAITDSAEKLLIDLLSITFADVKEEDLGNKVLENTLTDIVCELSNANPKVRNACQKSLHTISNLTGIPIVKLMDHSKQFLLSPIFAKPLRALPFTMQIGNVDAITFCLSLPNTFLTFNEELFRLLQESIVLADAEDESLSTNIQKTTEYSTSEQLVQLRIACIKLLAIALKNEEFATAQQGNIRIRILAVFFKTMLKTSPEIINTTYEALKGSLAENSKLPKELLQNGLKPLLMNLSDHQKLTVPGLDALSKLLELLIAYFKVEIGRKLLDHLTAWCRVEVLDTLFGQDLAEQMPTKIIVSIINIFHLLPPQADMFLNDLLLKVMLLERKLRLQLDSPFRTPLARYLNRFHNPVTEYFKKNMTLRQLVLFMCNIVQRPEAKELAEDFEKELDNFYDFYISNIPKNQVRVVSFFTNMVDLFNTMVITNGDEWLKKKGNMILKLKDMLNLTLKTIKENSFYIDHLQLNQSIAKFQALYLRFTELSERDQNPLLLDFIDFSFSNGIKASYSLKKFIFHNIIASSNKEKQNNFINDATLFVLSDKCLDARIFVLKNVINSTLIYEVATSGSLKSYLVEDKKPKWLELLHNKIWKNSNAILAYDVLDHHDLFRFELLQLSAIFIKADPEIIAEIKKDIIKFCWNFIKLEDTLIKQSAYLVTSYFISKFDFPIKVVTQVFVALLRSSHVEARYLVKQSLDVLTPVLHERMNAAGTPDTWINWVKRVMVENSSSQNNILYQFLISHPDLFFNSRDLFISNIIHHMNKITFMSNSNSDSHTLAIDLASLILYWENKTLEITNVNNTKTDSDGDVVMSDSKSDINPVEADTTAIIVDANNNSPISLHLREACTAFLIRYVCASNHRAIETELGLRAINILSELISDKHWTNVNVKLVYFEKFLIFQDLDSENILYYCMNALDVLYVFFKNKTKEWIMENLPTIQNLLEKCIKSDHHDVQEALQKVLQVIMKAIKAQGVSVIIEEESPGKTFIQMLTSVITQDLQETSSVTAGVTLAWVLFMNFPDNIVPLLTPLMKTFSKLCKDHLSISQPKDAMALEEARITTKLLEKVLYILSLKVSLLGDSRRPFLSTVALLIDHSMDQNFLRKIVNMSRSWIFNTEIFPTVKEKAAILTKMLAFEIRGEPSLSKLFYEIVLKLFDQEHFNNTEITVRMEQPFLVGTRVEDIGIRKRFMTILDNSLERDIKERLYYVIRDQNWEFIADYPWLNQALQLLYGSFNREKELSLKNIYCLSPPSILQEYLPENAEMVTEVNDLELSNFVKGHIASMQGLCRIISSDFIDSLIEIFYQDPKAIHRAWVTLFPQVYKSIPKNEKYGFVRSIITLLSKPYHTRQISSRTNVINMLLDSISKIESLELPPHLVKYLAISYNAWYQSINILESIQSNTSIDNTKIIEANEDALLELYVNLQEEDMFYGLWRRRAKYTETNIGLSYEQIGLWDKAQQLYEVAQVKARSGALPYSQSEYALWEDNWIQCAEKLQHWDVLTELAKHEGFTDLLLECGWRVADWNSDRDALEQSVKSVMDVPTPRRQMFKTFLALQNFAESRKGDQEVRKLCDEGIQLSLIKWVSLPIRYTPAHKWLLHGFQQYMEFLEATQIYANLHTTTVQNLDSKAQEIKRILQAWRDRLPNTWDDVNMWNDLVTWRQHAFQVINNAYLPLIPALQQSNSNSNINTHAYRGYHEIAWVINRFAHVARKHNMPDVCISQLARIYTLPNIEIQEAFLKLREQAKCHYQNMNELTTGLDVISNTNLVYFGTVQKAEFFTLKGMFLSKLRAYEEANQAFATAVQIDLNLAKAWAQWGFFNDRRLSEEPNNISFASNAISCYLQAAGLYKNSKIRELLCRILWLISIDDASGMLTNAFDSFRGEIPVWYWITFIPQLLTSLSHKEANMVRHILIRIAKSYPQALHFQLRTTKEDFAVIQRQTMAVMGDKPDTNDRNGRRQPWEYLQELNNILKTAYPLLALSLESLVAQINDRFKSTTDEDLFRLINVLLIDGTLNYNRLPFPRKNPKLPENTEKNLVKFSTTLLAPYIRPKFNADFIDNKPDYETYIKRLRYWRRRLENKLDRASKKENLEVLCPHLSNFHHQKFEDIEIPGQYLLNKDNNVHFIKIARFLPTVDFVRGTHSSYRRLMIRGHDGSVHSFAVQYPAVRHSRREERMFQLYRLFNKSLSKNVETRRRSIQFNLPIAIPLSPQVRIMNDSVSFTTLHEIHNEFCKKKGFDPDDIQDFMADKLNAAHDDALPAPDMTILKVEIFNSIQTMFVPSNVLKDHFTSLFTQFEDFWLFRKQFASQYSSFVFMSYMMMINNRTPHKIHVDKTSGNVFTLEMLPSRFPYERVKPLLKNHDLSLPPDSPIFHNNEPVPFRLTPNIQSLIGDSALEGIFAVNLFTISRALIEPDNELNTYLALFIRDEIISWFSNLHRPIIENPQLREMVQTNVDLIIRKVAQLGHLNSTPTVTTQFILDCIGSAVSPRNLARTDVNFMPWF

Taf5 [4] = biological target: B2; assay: affinity purification with mass spectrometry

Binder | binding result (Sgf73 [1]) | binding result (Taf5 [2]) | binding result (Spt7) | also measured
Taf9 (natural protein) MNGGGKNVLNKNSVGSVSEVGPDSTQEETPRDVRLLHLLLASQSIHQYEDQVPLQLMDFAHRYTQGVLKDALVYNDYAGSGNSAGSGLGVEDIRLAIAARTQYQFKPTAPKELMLQLAAERNKKALPQVMGTWGVRLPPEKYCLTAKEWDLEDPKSM | binds | binds | – | binding result (Taf6): binds
Taf10 (natural protein) MDFEEDYDAEFDDNQEGQLETPFPSVAGADDGDNDNDDSVAENMKKKQKREAVVDDGSENAFGIPEFTRKDKTLEEILEMMDSTPPIIPDAVIDYYLTKNGFNVADVRVKRLLALATQKFVSDIAKDAYEYSRIRSSVAVSNANNSQARARQLLQGQQQPGVQQISQQQHQQNEKTTASKVVLTVNDLSSAVAEYGLNIGRPDFYR | – | binds | binds | –
Spt20 (natural protein) MSANSPTGNDPHVFGIPVNATPSNMGSPGSPVNVPPPMNPAVANVNHPVMRTNSNSNANEGTRTLTREQIQQLQQRQRLLLQQRLLEQQRKQQALQNYEAQFYQMLMTLNKRPKRLYNFVEDADSILKKYEQYLHSFEFHIYENNYKICAPANSRLQQQQKQPELTSDGLILTKNNETLKEFLEYVARGRIPDAIMEVLRDCNIQFYEGNLILQVYDHTNTVDVTPKENKPNLNSSSSPSNNNSTQDNSKIQQPSEPNSGVANTGANTANKKASFKRPRVYRTLLKPNDLTTYYDMMSYADNARFSDSIYQQFESEILTLTKRNLSLSVPLNPYEHRDMLEETAFSEPHWDSEKKSFIHEHRAESTREGTKGVVGHIEERDEFPQHSSNYEQLMLIMNERTTTITNSTFAVSLTKNAMEIASSSSNGVRGASSSTSNSASNTRNNSLANGNQVALAAAAAAAAVGSTMGNDNNQFSRLKFIEQWRINKEKRKQQALSANINPTPFNARISMTAPLTPQQQLLQRQQQALEQQQNGGAMKNANKRSGNNATSNNNNNNNNLDKPKVKRPRKNAKKSESGTPAPKKKRMTKKKQSASSTPSSTTMS | – | – | – | binding result (Sgf73 [3]): binds; binding result (Tra1): binds; binding result (Taf5 [4]): binds
B1 | binds | binds | binds | –
B2 | – | – | binds | –

— publication PMC6994259 (Nature, 2020)
